Assay [1] has as its target T1, AK564 (human, UniProt Q13261 31-96).
T1 construct: also called IL-15 masked non-cleavable AK564
The experiment in a line: SPR (Biacore 8K), multi-cycle kinetics, human CD215 immobilised by amine coupling, construct as analyte, 25 C. (In SPR one partner is held on a chip, and binding of the other changes the refractive index at the surface.)

The target in assay [2] is T1, AK564. The experiment in a line: SPR (Biacore 8K), multi-cycle kinetics, human CD122 immobilised by amine coupling, construct as analyte, 25 C.

Here are results for two molecules from patent US20230331799A1 (XILIO DEVELOPMENT, published 2023).

B1: Recombinant Human IL-15R alpha Fc chimera Protein (CD215) (Fc fusion, UniProt Q13261 31-205, looked up)
chain: ITCPPPMSVEHADIWVKSYSLYSRERYICNSGFKRKAGTSSLTECVLNKATNVAHWTTPSLKCIRDPALVHQRPAPPSTVTTAGVTPQPESLSPSGKEPAASSPSSNNTAATTAAIVPGSQLMPSKSPSTGTTEISSHESSHGTPSQTTAKNWELTASASHQPPGVYPQGHSDTT
notes: also called human CD215; Fc part of the bought chimera not given
In the case of B1, the binding result with AK564 [1] is listed as “no binding (tested: Top 40 nM, 2x dilution)”.

B2: Recombinant Human IL-2 R beta Protein (CD122) (receptor, UniProt P14784 27-239, looked up)
chain: AVNGTSQFTCFYNSRANISCVWSQDGALQDTSCQVHAWPDRRRWNQTCELLPVSQASWACNLILGAPDSQKLTTVDIVTLRVLCREGVRWRVMAIQDFKPFENLRLMAPISLQVVHVETHRCNISWEISQASHYFERHLEFEARTLSPGHTWEEAPLLTLKQKQEWICLETLTPDTQYEFQVRVKPLQGEFTTWSPWSQPLAFRTKPAALGKD
notes: also called human CD122
As for B2, in the assay with AK564 [2], the binding result is “no binding (tested: Top 500 nM, 2x dilution)”.
